The values that follow come from patent publication US20060183687A1 (WALTER AND ELIZA HALL INSTITUTE OF MEDICAL RESEARCH, published 2006).

Experiment [1] addresses T1, human Bcl-2 (human, UniProt P10415 1-239).
T1 construct: also called wt Bcl-2
The experiment in a line: immunoprecipitation and immunoblot from FDC-P1 cells. A general note: Immunoblotting shows a protein as a band on a membrane.

The target in experiment [2] is T1, human Bcl-2. In words: yeast two-hybrid, beta-galactosidase activity with ONPG.
The target in another experiment is T2, dynein light chain (UniProt P63167 1-89, limits assumed).
T2 construct: also called cytoplasmic dynein light chain
In words: yeast two-hybrid, beta-galactosidase activity with ONPG; reference wild-type BimL.

Experiment [3] concerns the target T1, human Bcl-2. In words: immunoprecipitation with anti-human Bcl-2 from FDC-P1 cells, anti-EE immunoblot.
For experiment [4], the target named is T1, human Bcl-2. In words: immunoprecipitation and immunoblot from FDC-P1 cells (FIG. 8B).
In experiment [5] the target is T3, Epstein-Barr virus BHRF-1 protein (Epstein-Barr virus, UniProt P03182 1-191).
T3 sequence: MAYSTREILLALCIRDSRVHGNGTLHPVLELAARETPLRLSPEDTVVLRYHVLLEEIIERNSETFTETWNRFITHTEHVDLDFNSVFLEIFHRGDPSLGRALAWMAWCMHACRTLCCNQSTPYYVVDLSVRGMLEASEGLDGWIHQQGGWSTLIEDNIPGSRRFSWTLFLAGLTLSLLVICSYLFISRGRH
In words: immunoprecipitation from co-transfected 293T cells.

Numbering of substitutions follows the chain as printed. Names may count otherwise.

T1 sequence (P10415 whole entry): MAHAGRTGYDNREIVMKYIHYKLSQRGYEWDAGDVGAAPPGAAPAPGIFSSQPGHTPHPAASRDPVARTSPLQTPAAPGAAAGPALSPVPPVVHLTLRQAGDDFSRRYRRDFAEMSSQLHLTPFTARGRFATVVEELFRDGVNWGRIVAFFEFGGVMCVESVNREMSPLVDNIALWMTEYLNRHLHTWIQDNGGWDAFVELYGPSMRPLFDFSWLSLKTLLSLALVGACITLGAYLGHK
T2 sequence (P63167 whole entry): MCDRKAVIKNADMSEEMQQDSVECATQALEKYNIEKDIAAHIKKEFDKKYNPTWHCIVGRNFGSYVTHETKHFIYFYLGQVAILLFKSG

B1: EE-BimL ΔBH3 mutant (other)
chain: EYMPMEMAKQPSDVSSECDREGGQLQPAERPPQLRPGAPTSLQTEPQDRSPAPMSCDKSTQTPSPPCQAFNHYLSAMASIRQSQEEPEDLRPEIRIAQEALFNETYTRRVFANDYREAEDHPQMVILQLLRFIFRLVWRRH
notes: also called EE-Bim ΔBH3
As to B1, in the experiment with human Bcl-2 [1], the binding result is “no binding”.

B2: murine BimL (wild-type) (other)
chain: MAKQPSDVSSECDREGGQLQPAERPPQLRPGAPTSLQTEPQDRSPAPMSCDKSTQTPSPPCQAFNHYLSAMASIRQSQEEPEDLRPEIRIAQELRRIGDEFNETYTRRVFANDYREAEDHPQMVILQLLRFIFRLVWRRH
notes: also called wild-type BimL; mBIM L
For B2, in the experiment with human Bcl-2 [2], the binding result is given as “binds”.

B3: BimL mutant S53P (other)
chain: B2 chain with S53P
Consider B3, for which the “activity compared to wild-type BimL” value with dynein light chain was less than 0.1%. In addition, in the experiment with human Bcl-2 [2], the binding result was “binds”.

B4: BimL mutant D51G (other)
chain: B2 chain with D51G
notes: also called D51G mutant
Regarding B4, the binding result with human Bcl-2 [2] is “binds”.

B5: BimL double mutant T54I/N65S (other)
chain: B2 chain with T54I, N65S
notes: also called T541/N65S; double mutant T541/N65S
Take B5: in the experiment with dynein light chain, the “activity compared to wild-type BimL” value is less than 0.1%. Further, the binding result in the experiment with human Bcl-2 [2] is “binds”.

B6: BimL mutant T54A (other)
chain: B2 chain with T54A
Consider B6, for which, in the experiment with dynein light chain, the “activity compared to wild-type BimL” value is less than 0.1%. The binding result in the experiment with human Bcl-2 [2] is given as “binds”.

B7: EE-tagged BimEL (other)
chain: EYMPMEMAKQPSDVSSECDREGGQLQPAERPPQLRPGAPTSLQTEPQGNPDGEGDRCPHGSPQGPLAPPASPGPFATRSPLFIFVRRSSLLSRSSSGYFSFDTDRSPAPMSCDKSTQTPSPPCQAFNHYLSAMASIRQSQEEPEDLRPEIRIAQELRRIGDEFNETYTRRVFANDYREAEDHPQMVILQLLRFIFRLVWRRH
In the case of B7, in the experiment with human Bcl-2 [3], the binding result is reported as “binds”.

B8: EE-tagged BimL (Glu-Glu epitope-tagged mouse BimL) (other)
chain: EYMPMEMAKQPSDVSSECDREGGQLQPAERPPQLRPGAPTSLQTEPQDRSPAPMSCDKSTQTPSPPCQAFNHYLSAMASIRQSQEEPEDLRPEIRIAQELRRIGDEFNETYTRRVFANDYREAEDHPQMVILQLLRFIFRLVWRRH
notes: N-terminal EE tag from a pEF vector derivative; also called EE-BimL; EE BimL
Take B8: the results for the binding result (with human Bcl-2 [4]; in experiment [5]) were “binds” and “no binding”, respectively.

B9: EE-tagged BimS (other)
chain: EYMPMEMAKQPSDVSSECDREGGQLQPAERPPQLRPGAPTSLQTEPQASIRQSQEEPEDLRPEIRIAQELRRIGDEFNETYTRRVFANDYREAEDHPQMVILQLLRFIFRLVWRRH
As for B9, the binding result with human Bcl-2 [3] was “binds”.
